From patent US20260056186A1 (JIANGSU HENGRUI PHARMACEUTICALS, published 2026)
Each block holds one binder with its values, some of them ahead of it.

Assays:
[1] = target: T1, IFNAR1 (human, UniProt P17181 28-557); assay: cell-based or functional assay
T1 sequence (looked up): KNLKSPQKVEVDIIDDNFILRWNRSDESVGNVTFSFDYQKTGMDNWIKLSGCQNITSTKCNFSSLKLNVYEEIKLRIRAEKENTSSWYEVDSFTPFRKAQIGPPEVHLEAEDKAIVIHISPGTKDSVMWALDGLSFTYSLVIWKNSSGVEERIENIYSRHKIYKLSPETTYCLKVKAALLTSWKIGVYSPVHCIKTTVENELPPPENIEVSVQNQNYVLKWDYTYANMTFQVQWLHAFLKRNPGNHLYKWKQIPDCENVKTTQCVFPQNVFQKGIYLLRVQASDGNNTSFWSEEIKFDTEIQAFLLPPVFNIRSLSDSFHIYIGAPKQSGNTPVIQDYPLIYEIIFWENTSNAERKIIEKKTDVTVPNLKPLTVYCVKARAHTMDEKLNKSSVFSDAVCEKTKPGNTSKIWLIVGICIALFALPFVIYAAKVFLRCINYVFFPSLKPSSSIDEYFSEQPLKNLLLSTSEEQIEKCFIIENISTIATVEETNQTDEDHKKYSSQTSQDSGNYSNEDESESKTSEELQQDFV

[2] = target: T1, IFNAR1; assay: cell-based or functional assay; remark: listed apart in the source
[3] = target: T2, recombinant human BAFF (R&D cat: 7537-BF-025/CF) (human, UniProt Q9Y275 134-285); assay: cell-based or functional assay
[4] = target: T3, recombinant human APRIL (R&D cat: 5860-AP-010/CF) (human, UniProt O75888 105-250, limits assumed); assay: cell-based or functional assay
T3 sequence (looked up): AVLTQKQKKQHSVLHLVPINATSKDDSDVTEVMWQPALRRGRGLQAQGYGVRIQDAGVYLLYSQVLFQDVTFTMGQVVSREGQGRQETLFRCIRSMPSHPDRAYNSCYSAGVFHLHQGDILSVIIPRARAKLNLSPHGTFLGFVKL

[5] = target: T2, recombinant human BAFF (R&D cat: …); assay: cell-based or functional assay; remark: listed apart in the source
[6] = target: T3, recombinant human APRIL (R&D cat: …); assay: cell-based or functional assay; remark: listed apart in the source
[7] = target: T4, APRIL (Acro Biosystems, Cat: APL-H52D1) (UniProt O75888 115-250, limits assumed); assay: ELISA, APRIL coated at 1 ug/mL, anti-human Fc-HRP, OD450
T4 construct: also called ARPIL
T4 sequence (looked up): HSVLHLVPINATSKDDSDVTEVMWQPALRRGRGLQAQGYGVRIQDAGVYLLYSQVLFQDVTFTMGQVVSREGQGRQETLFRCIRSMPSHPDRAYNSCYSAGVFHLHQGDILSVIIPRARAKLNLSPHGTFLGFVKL
Protocol: The capabilities of fusion proteins B606401, B637302, B746201, and B805201 to bind to BAFF and APRIL were assessed by ELISA as follows:
BAFF (PeproTech, Cat: 310-13) or ARPIL (Acro Biosystems, Cat: APL-H52D1) was diluted to 1 μg/mL with PBS, and a 96-well plate was coated with the dilution overnight at 4° C. The plate was washed with PBST and blocked with Blocking Buffer (PBST containing 1% BSA) at 37° C. for 1 h. The plate was tapped. The test antibodies were diluted with Blocking Buffer. Incubation was performed at 37° C. for 1.5 h. The plate was washed with PBST. An HRP-mouse anti-human Fc antibody (GenScript, Cat: A01854-200) was diluted with Blocking Buffer. Incubation was performed at 37° C. for 40 min. The plate was washed with PBST. 100 μL of TMB substrate solution (Biopanda, Cat: TMB-S-003) was added, and color development was performed at 37° C. for 3 min. 100 μL of ELISA stop solution (Solarbio, Cat: C1058) was added. OD450 was measured.

- IC50, inhibition of IFN-alpha-induced in vitro differentiation of B cells into plasma cells (CD27+ CD38+) [1]: 10.8 nM
- IC50 (nM), inhibition of the activity of type I interferons (IFN-beta, HEK-Blue IFN-alpha/beta reporter cells) [2]: 1.59 nM
- Flow cytometry proliferating B cell proportion (%), mean value, BAFF-induced, drug at 10 nM (IgG1: 40.15) [3]: 23.8%
- Flow cytometry proliferating B cell proportion (%), mean value, BAFF-induced, drug at 100 nM (IgG1: 40.60) [3]: 22.2%
- Flow cytometry proliferating B cell proportion (%), mean value, BAFF-induced, drug at 1000 nM (IgG1: 33.97) [3]: 10.9%
- Flow cytometry proliferating B cell proportion (%), mean value, APRIL-induced, drug at 4.12 nM (IgG1: 55.30) [4]: 50.6%
- Flow cytometry proliferating B cell proportion (%), mean value, APRIL-induced, drug at 12.35 nM (IgG1: 54.80) [4]: 50.7%
- Flow cytometry proliferating B cell proportion (%), mean value, APRIL-induced, drug at 37.04 nM (IgG1: 56.63) [4]: 53.6%
- Flow cytometry proliferating B cell proportion (%), mean value, APRIL-induced, drug at 111.11 nM (IgG1: 55.83) [4]: 51.5%
- Flow cytometry proliferating B cell proportion (%), mean value, APRIL-induced, drug at 333.33 nM (IgG1: 56.27) [4]: 48%
- Flow cytometry proliferating B cell proportion (%), mean value, APRIL-induced, drug at 1000.00 nM (IgG1: 53.27) [4]: 33.6%
- CD27+ CD38+ plasma cell count, mean value, BAFF + APRIL-induced (both ligands together), drug at 100 nM (IgG1: 2496) [5]: 482 cells
- CD27+ CD38+ plasma cell count, mean value, BAFF + APRIL-induced (both ligands together), drug at 1000 nM (IgG1: 2279) [5]: 137 cells
- CD27+ CD38+ plasma cell count, mean value, BAFF + APRIL-induced (both ligands together), drug at 10 nM (IgG1: 2687) [6]: 563 cells
- CD27+ CD38+ plasma cell count, mean value, BAFF + APRIL-induced (both ligands together), drug at 100 nM (IgG1: 2496) [6]: 482 cells
- CD27+ CD38+ plasma cell count, mean value, BAFF + APRIL-induced (both ligands together), drug at 1000 nM (IgG1: 2279) [6]: 137 cells
- EC50 [7]: 0.0819 nM
- Emax [7]: 2.9
B1: B637302 (other)
heavy: EVQLVQSGAEVKKPGESLKISCKGSGYIFTNYWIAWVRQMPGKGLESMGIIYPGDSDIRYSPSFQGQVTISADKSITTAYLQWSSLKASDTAMYYCARHDIEGFDYWGRGTLVTVSSASTKGPSVFPLAPSSKSTSGGTAALGCLVKDYFPEPVTVSWNSGALTSGVHTFPAVLQSSGLYSLSSVVTVPSSSLGTQTYICNVNHKPSNTKVDKRVEPKSCDKTHTCPPCPAPEFEGGPSVFLFPPKPKDTLMISRTPEVTCVVVDVSHEDPEVKFNWYVDGVEVHNAKTKPREEQYNSTYRVVSVLTVLHQDWLNGKEYKCKVSNKALPASIEKTISKAKGQPREPQVYTLPPSRDELTKNQVSLTCLVKGFYPSDIAVEWESNGQPENNYKTTPPVLDSDGSFFLYSKLTVDKSRWQQGNVFSCSVMHEALHNHYTQKSLSLSPGK
light: EIVLTQSPGTLSLSPGERATLSCRASQSVSSSFFAWYQQKPGQAPRLLIYGASSRATGIPDRLSGSGSGTDFTLTITRLEPEDFAVYYCQQYDSSAITFGQGTRLEIKRTVAAPSVFIFPPSDEQLKSGTASVVCLLNNFYPREAKVQWKVDNALQSGNSQESVTEQDSKDSTYSLSSTLTLSKADYEKHKVYACEVTHQGLSSPVTKSFNRGECGGGGSGGGGSMLQMAGQCSQNEYFDSLLHACIPCQLRCSSNTPPLTCQRYCSTSCREEQGEFYDHLLRDCISCASICGQHPKQCAAFCE
notes: Fusion protein of anifrolumab, TACI-19-16 and BCMA-ECD-2 (C-terminus of the light chain)

- IC50, inhibition of IFN-alpha-induced in vitro differentiation of B cells into plasma cells (CD27+ CD38+) [1]: 17.4 nM
- IC50 (nM), inhibition of the activity of type I interferons (IFN-beta, HEK-Blue IFN-alpha/beta reporter cells) [2]: 1.94 nM
- Flow cytometry proliferating B cell proportion (%), mean value, BAFF-induced, drug at 10 nM (IgG1: 40.15) [3]: 28.1%
- Flow cytometry proliferating B cell proportion (%), mean value, BAFF-induced, drug at 100 nM (IgG1: 40.60) [3]: 25.3%
- Flow cytometry proliferating B cell proportion (%), mean value, BAFF-induced, drug at 1000 nM (IgG1: 33.97) [3]: 17.9%
- Flow cytometry proliferating B cell proportion (%), mean value, APRIL-induced, drug at 4.12 nM (IgG1: 55.30) [4]: 52%
- Flow cytometry proliferating B cell proportion (%), mean value, APRIL-induced, drug at 12.35 nM (IgG1: 54.80) [4]: 52.9%
- Flow cytometry proliferating B cell proportion (%), mean value, APRIL-induced, drug at 37.04 nM (IgG1: 56.63) [4]: 53.6%
- Flow cytometry proliferating B cell proportion (%), mean value, APRIL-induced, drug at 111.11 nM (IgG1: 55.83) [4]: 53.1%
- Flow cytometry proliferating B cell proportion (%), mean value, APRIL-induced, drug at 333.33 nM (IgG1: 56.27) [4]: 50.6%
- Flow cytometry proliferating B cell proportion (%), mean value, APRIL-induced, drug at 1000.00 nM (IgG1: 53.27) [4]: 40.3%
- CD27+ CD38+ plasma cell count, mean value, BAFF + APRIL-induced (both ligands together), drug at 100 nM (IgG1: 2496) [5]: 549 cells
- CD27+ CD38+ plasma cell count, mean value, BAFF + APRIL-induced (both ligands together), drug at 1000 nM (IgG1: 2279) [5]: 426 cells
- CD27+ CD38+ plasma cell count, mean value, BAFF + APRIL-induced (both ligands together), drug at 10 nM (IgG1: 2687) [6]: 654 cells
- CD27+ CD38+ plasma cell count, mean value, BAFF + APRIL-induced (both ligands together), drug at 100 nM (IgG1: 2496) [6]: 549 cells
- CD27+ CD38+ plasma cell count, mean value, BAFF + APRIL-induced (both ligands together), drug at 1000 nM (IgG1: 2279) [6]: 426 cells
- EC50 [7]: 0.607 nM
- Emax [7]: 2.81
B2: B606401 (other)
heavy: B1 heavy
light: EIVLTQSPGTLSLSPGERATLSCRASQSVSSSFFAWYQQKPGQAPRLLIYGASSRATGIPDRLSGSGSGTDFTLTITRLEPEDFAVYYCQQYDSSAITFGQGTRLEIKRTVAAPSVFIFPPSDEQLKSGTASVVCLLNNFYPREAKVQWKVDNALQSGNSQESVTEQDSKDSTYSLSSTLTLSKADYEKHKVYACEVTHQGLSSPVTKSFNRGECGGGGSGGGGSSTSCREEQGEFYDHLLRDCISCASICGQHPKQCAAFCE
notes: Fusion protein of anifrolumab and TACI-19-16 (C-terminus of the light chain)
